Positions count from the first letter of the chain named. Names and notes keep the numbering of the source.
Target: T1, EsCas13d, nuclease-dead (Eubacterium siraeum, UniProt B0MS50, R295A;H300A;R849A;H854A)
T1 sequence: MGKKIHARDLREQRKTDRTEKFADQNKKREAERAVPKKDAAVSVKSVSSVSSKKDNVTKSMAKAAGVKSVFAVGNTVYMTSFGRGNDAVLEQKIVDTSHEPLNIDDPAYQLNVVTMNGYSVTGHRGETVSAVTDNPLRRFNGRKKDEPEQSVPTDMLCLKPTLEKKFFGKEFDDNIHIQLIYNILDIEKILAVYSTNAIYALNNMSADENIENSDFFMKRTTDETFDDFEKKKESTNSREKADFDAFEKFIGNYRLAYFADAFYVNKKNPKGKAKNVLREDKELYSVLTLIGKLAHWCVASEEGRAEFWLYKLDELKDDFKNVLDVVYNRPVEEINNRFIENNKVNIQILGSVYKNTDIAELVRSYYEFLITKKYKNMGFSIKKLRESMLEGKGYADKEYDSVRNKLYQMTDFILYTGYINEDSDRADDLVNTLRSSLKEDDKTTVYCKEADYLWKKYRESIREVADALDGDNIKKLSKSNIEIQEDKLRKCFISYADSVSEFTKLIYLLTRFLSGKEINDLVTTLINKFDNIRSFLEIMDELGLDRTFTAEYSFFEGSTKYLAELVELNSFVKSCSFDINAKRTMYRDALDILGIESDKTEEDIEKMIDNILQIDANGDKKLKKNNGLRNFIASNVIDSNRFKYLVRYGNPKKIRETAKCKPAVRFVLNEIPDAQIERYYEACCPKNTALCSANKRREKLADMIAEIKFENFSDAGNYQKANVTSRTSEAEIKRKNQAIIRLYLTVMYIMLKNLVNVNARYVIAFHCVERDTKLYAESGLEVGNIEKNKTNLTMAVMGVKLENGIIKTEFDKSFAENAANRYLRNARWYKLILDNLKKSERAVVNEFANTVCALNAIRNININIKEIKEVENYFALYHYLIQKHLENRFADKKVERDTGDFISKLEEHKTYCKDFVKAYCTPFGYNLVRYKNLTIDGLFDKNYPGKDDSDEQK
Experiment: crRNA (strand 1, pre-loaded); Mg2+; 40 mM Tris-HCl pH 7.5, 150 mM NaCl, 6 mM MgCl2, 1 mM DTT, 0.1% Tween-20, 0.2 mg/ml BSA; 25 C; 10 min per concentration, then washed
Details: tags: His6-TwinStrep-SUMO cleaved; N-terminal SNAP kept (SNAP-Surface 488); label: 3' end held by stalled T7 RNA polymerase

B1: target 1 C4G,U19G (mixed)
RNA 1: CACCCGUGCAAAAAUGCAGGGGUCUAAAACUGAGCGGAUAACCUCUCUAUGG
RNA 2: GGGAAUGGAUCCACAUCUACGAAUUCGUACCAGAGAGAGGUUAUCCGGUCACCGAGAUCGGAAGAGCACACGU
  Kd: 100 ± 50 nM

B2: target 1 U11A,A18G (mixed)
RNA 1: B1 RNA 1
RNA 2: B1 RNA 2 with G33U, A34G, U41A, G48C
  Kd: 80 ± 40 nM

B3: target 1 insC 3' of 22,insG 3' of 2 (mixed)
RNA 1: B1 RNA 1
RNA 2: GGGAAUGGAUCCACAUCUACGAAUUCGUACCCAUAGAGAGGUUAUCCGCUCGACCGAGAUCGGAAGAGCACACGU
  Kd: 21.1 ± 3.2 nM

B4: target 1 del22 (mixed)
RNA 1: B1 RNA 1
RNA 2: GGGAAUGGAUCCACAUCUACGAAUUCGUACAUAGAGAGGUUAUCCGCUCACCGAGAUCGGAAGAGCACACGU
  Kd: 26.6 ± 1.7 nM

B5: target 1 C4A,G5U (mixed)
RNA 1: B1 RNA 1
RNA 2: B1 RNA 2 with G33U, G47U, G48A
  Kd: 30.6 ± 2.4 nM

B6: target 1 insC 3' of 11,insA 3' of 6 (mixed)
RNA 1: B1 RNA 1
RNA 2: GGGAAUGGAUCCACAUCUACGAAUUCGUACCAUAGAGAGGUCUAUCCAGCUCACCGAGAUCGGAAGAGCACACGU
  Kd: 47 ± 14 nM

B7: target 1 A9U,U10C (mixed)
RNA 1: B1 RNA 1
RNA 2: B1 RNA 2 with G33U, U42C, A43U, G48C
  Kd: 8.6 ± 0.9 nM

B8: target 1 insC 3' of 9,insG 3' of 8 (mixed)
RNA 1: B1 RNA 1
RNA 2: B6 RNA 2 with C42U, U43A, A44C, C46G, A48C
  Kd: 11.1 ± 0.4 nM

B9: target 1 insC 3' of 22,insA 3' of 11 (mixed)
RNA 1: B1 RNA 1
RNA 2: B3 RNA 2 with U43A, A44U, U45A, C46U, G48C, C49G, U50C, C51U, G52C
  Kd: 33 ± 5 nM

B10: target 1 insU 3' of 20,insC 3' of 17 (mixed)
RNA 1: B1 RNA 1
RNA 2: GGGAAUGGAUCCACAUCUACGAAUUCGUACCAUUAGCAGAGGUUAUCCGCUCACCGAGAUCGGAAGAGCACACGU
  Kd: 44 ± 8 nM

B11: target 1 complement block 3-10 (mixed)
RNA 1: B1 RNA 1
RNA 2: B1 RNA 2 with G33U, U42A, A43U, U44A, C45G, C46G, G47C, U49A
  Kd: 12.2 ± 0.34 nM

B12: target 1 insU 3' of 21,insA 3' of 10 (mixed)
RNA 1: B1 RNA 1
RNA 2: B10 RNA 2 with A32U, U33A, C37A, A38G, G39A, A40G, G42U, U44A
  Kd: 39.2 ± 2.4 nM

B13: target 1 insG 3' of 22,insC 3' of 3 (mixed)
RNA 1: B1 RNA 1
RNA 2: B3 RNA 2 with C31G, G52C
  Kd: 31.2 ± 3.4 nM

B14: target 1 insA 3' of 22 (mixed)
RNA 1: B1 RNA 1
RNA 2: GGGAAUGGAUCCACAUCUACGAAUUCGUACACAUAGAGAGGUUAUCCGCUCACCGAGAUCGGAAGAGCACACGU
  Kd: 14.8 ± 1.1 nM

B15: target 1 insC 3' of 12,insG 3' of 1 (mixed)
RNA 1: B1 RNA 1
RNA 2: B6 RNA 2 with U41C, C42U, A48G, G49C, C50U, U51C, C52A, A53G
  Kd: 8.5 ± 1.2 nM

B16: target 1 insU 3' of 15,insC 3' of 9 (mixed)
RNA 1: B1 RNA 1
RNA 2: B6 RNA 2 with A38U, G39A, U41G, C42U, U45C, C46U, A48C
  Kd: 67 ± 7 nM

B17: target 1 U3A,A16C (mixed)
RNA 1: B1 RNA 1
RNA 2: B1 RNA 2 with G33U, A36C, G48C, U49A
  Kd: 76 ± 7 nM

B18: target 1 insU 3' of 18,insA 3' of 7 (mixed)
RNA 1: B1 RNA 1
RNA 2: B6 RNA 2 with G35U, A36G, G37A, A38G, G39A, U41G, C42U, C47A, A48C
  Kd: 23.6 ± 2.6 nM

B19: target 1 insA 3' of 13,insU 3' of 9 (mixed)
RNA 1: B1 RNA 1
RNA 2: B6 RNA 2 with G40A, U41G, C42U, C46U, A48C
  Kd: 4.6 ± 0.5 nM

B20: target 1 C6G,U19A (mixed)
RNA 1: B1 RNA 1
RNA 2: B1 RNA 2 with G33A, C46G, G48C
  Kd: 35 ± 5 nM

B21: target 1 insC 3' of 12,insA 3' of 2 (mixed)
RNA 1: B1 RNA 1
RNA 2: B6 RNA 2 with U41C, C42U, A48G, G49C, C50U, U51C, C52A
  Kd: 9.9 ± 1.1 nM

B22: target 1 U8C,G17U (mixed)
RNA 1: B1 RNA 1
RNA 2: B1 RNA 2 with G33U, G35U, U44C, G48C
  Kd: 41 ± 4 nM

B23: target 1 insG 3' of 16,insA 3' of 13 (mixed)
RNA 1: B1 RNA 1
RNA 2: B6 RNA 2 with A38G, G39A, U41A, C42G, A44U, U45A, C46U, A48C
  Kd: 16.1 ± 1.5 nM

B24: target 1 insG 3' of 8,insG 3' of 7 (mixed)
RNA 1: B1 RNA 1
RNA 2: B6 RNA 2 with C42U, U43A, A44U, U45G, C47G, A48C
  Kd: 8.24 ± 0.23 nM

B25: target 1 insC 3' of 12,insC 3' of 1 (mixed)
RNA 1: B1 RNA 1
RNA 2: B6 RNA 2 with U41C, C42U, A48G, G49C, C50U, U51C, C52A, A53C
  Kd: 7.7 ± 0.5 nM

B26: target 1 C6U,A16C (mixed)
RNA 1: B1 RNA 1
RNA 2: B1 RNA 2 with G33U, A36C, C46U, G48C
  Kd: 40 ± 5 nM

B27: target 1 C6U,C7A (mixed)
RNA 1: B1 RNA 1
RNA 2: B1 RNA 2 with G33U, C45A, C46U, G48C
  Kd: 8.6 ± 0.6 nM

B28: target 1 C2G,U8G (mixed)
RNA 1: B1 RNA 1
RNA 2: B1 RNA 2 with G33U, U44G, G48C, C50G
  Kd: 17.4 ± 0.8 nM

B29: target 1 insC 3' of 18,insA 3' of 4 (mixed)
RNA 1: B1 RNA 1
RNA 2: B3 RNA 2 with C32A, A33U, U34A, A35C, U50A, C51U, G52C
  Kd: 38 ± 9 nM

B30: target 1 insU 3' of 15,insU 3' of 7 (mixed)
RNA 1: B1 RNA 1
RNA 2: B6 RNA 2 with A38U, G39A, U41G, C42U, C47U, A48C
  Kd: 8.47 ± 0.27 nM

B31: target 1 C6A,C21U (mixed)
RNA 1: B1 RNA 1
RNA 2: B1 RNA 2 with C31U, G33U, C46A, G48C
  Kd: 6.48 ± 0.21 nM

B32: target 1 insA 3' of 12,insU 3' of 5 (mixed)
RNA 1: B1 RNA 1
RNA 2: B6 RNA 2 with U41A, C42U, A48G, G49U
  Kd: 35.4 ± 2.8 nM

B33: target 1 insC 3' of 12,insU 3' of 1 (mixed)
RNA 1: B1 RNA 1
RNA 2: B6 RNA 2 with U41C, C42U, A48G, G49C, C50U, U51C, C52A, A53U
  Kd: 12 ± 1.1 nM

From publication PMC10786891, “Massively parallel profiling of RNA-targeting CRISPR-Cas13d”
